Results taken from patent publication US20230340058A1.
Numbering of substitutions follows the chain as printed. Each block holds one binder with its values, some of them ahead of it.

Molecular target: human RXFP1, full-length (human), Q9HBX9
Assay: cell-based or functional assay

Chain of human RXFP1, full-length (human), Q9HBX9 (Q9HBX9 whole entry): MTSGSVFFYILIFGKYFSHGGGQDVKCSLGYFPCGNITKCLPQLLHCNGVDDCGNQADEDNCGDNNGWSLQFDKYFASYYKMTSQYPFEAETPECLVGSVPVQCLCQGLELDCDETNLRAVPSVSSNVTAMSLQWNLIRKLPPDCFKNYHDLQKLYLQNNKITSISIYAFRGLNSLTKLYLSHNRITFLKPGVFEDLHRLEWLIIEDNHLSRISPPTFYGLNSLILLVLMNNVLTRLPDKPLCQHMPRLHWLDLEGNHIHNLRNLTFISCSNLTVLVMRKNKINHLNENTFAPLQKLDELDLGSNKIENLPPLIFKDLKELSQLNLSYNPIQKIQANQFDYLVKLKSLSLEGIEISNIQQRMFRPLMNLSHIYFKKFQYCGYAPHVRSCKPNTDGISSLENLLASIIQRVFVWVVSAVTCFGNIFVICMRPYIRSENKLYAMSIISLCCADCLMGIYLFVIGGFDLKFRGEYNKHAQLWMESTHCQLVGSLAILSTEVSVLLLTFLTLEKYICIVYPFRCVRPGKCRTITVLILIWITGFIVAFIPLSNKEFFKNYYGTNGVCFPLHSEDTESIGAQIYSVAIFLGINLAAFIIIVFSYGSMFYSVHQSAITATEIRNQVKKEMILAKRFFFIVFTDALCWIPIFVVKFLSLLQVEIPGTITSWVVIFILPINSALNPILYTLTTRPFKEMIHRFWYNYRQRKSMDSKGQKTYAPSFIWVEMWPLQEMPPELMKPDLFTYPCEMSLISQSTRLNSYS

- Potency Assay EC50 (nM), transient hRXFP1 cAMP assay: 60.3 nM
B5: SEQ ID NO: 208 (Fc fusion)
chain: DKTHTCPPCPAPEAAGGPSVFLFPPKPKDTLMISRTPEVTCVVVDVSHEDPEVKFNWYVDGVEVHNAKTKPREEQYNSTYRVVSVLTVLHQDWLNGKEYKCKVSNKALAAPIEKTISKAKGQPREPQVYTLPPSRDELTKNQVSLTCLVKGFYPSDIAVEWESNGQPENNYKTTPPVLDSDGSFFLYSKLTVDKSRWQQGNVFSCSVLHEALHSHYTQKSLSLSPGKGGSDSWMEEVIKLCGRELVRAQIAICGKSTGGEGGGEEGGGEGGQLYSALANKCCHVGCTKRSLARFC

- Potency Assay EC50 (nM), transient hRXFP1 cAMP assay: 2.5 nM
B6: SEQ ID NO: 57 (Fc fusion)
chain: B5 chain with M234Q, E260G, G261E, E264G, G271R

- Potency Assay EC50 (nM), transient hRXFP1 cAMP assay: 2.9 nM
B7: SEQ ID NO: 206 (Fc fusion)
chain: B5 chain with E260G, G261E, E264G, G271R

- Potency Assay EC50 (nM), transient hRXFP1 cAMP assay: 4.2 nM
B10: SEQ ID NO: 66 (Fc fusion)
chain: B5 chain with M234Q, E260G, G261E, E264G, G271R, R293Q

- Potency Assay EC50 (nM), transient hRXFP1 cAMP assay: 62.8 nM
B11: SEQ ID NO: 209 (Fc fusion)
chain: B5 chain with M234Q

- Potency Assay EC50 (nM), transient hRXFP1 cAMP assay: 0.5 nM
B12: SEQ ID NO: 212 (Fc fusion)
chain: DKTHTCPPCPAPEAAGGPSVFLFPPKPKDTLMISRTPEVTCVVVDVSHEDPEVKFNWYVDGVEVHNAKTKPREEQYNSTYRVVSVLTVLHQDWLNGKEYKCKVSNKALAAPIEKTISKAKGQPREPQVYTLPPSRDELTKNQVSLTCLVKGFYPSDIAVEWESNGQPENNYKTTPPVLDSDGSFFLYSKLTVDKSRWQQGNVFSCSVLHEALHSHYTQKSLSLSPGKGGSDSWKEEVIKLCGRELVRAQIAICGKSTASDAAGANANAGARQLYSALANKCCHVGCTKRSLAQFC

- Potency Assay EC50 (nM), transient hRXFP1 cAMP assay: 140 nM
B14: SEQ ID NO: 210 (Fc fusion)
chain: DKTHTCPPCPAPEAAGGPSVFLFPPKPKDTLMISRTPEVTCVVVDVSHEDPEVKFNWYVDGVEVHNAKTKPREEQYNSTYRVVSVLTVLHQDWLNGKEYKCKVSNKALAAPIEKTISKAKGQPREPQVYTLPPSRDELTKNQVSLTCLVKGFYPSDIAVEWESNGQPENNYKTTPPVLDSDGSFFLYSKLTVDKSRWQQGNVFSCSVLHEALHSHYTQKSLSLSPGGGSDSWMEEVIKLCGRELVRAQIAICGKSTGGEGGGEEGGGEGGQLYSALANKCCHVGCTKRSLARFC

The next lines start with the binder.

B1: SEQ ID NO: 205 (Fc fusion)
chain: DKTHTCPPCPAPEAAGGPSVFLFPPKPKDTLMISRTPEVTCVVVDVSHEDPEVKFNWYVDGVEVHNAKTKPREEQYNSTYRVVSVLTVLHQDWLNGKEYKCKVSNKALAAPIEKTISKAKGQPREPQVYTLPPSRDELTKNQVSLTCLVKGFYPSDIAVEWESNGQPENNYKTTPPVLDSDGSFFLYSKLTVDKSRWQQGNVFSCSVLHEALHSHYTQKSLSLSPGKGGSDSWKEEVIKLCGRELVRAQIAICGKSTGGGEGGGEGGGEGGGQLYSALANKCCHVGCTKRSLARFC
- Potency Assay EC50 (nM), transient hRXFP1 cAMP assay: 12.3 nM

B2: SEQ ID NO: 207 (Fc fusion)
chain: B1 chain with K234M
- Potency Assay EC50 (nM), transient hRXFP1 cAMP assay: 16 nM

B3: SEQ ID NO: 60 (Fc fusion)
chain: B1 chain with K234Q
- Potency Assay EC50 (nM), transient hRXFP1 cAMP assay: 15.8 nM

B4: SEQ ID NO: 204 (Fc fusion)
chain: B5 chain with M234K, E260G, G261E, E264G, G271R
- Potency Assay EC50 (nM), transient hRXFP1 cAMP assay: 2.5 nM

B8: SEQ ID NO: 74 (Fc fusion)
chain: DKTHTCPPCPAPEAAGGPSVFLFPPKPKDTLMISRTPEVTCVVVDVSHEDPEVKFNWYVDGVEVHNAKTKPREEQYNSTYRVVSVLTVLHQDWLNGKEYKCKVSNKALAAPIEKTISKAKGQPREPQVYTLPPSRDELTKNQVSLTCLVKGFYPSDIAVEWESNGQPENNYKTTPPVLDSDGSFFLYSKLTVDKSRWQQGNVFSCSVLHEALHSHYTQKSLSLSPGKGGSDSWQEEVIKLCGRELVRAQIAICGKSTGGGEEGGGEEGGGRQLYSALANKCCHVGCTKRSLAQFC
- Potency Assay EC50 (nM), transient hRXFP1 cAMP assay: 10.2 nM

B9: SEQ ID NO: 72 (Fc fusion)
chain: B8 chain with Q293R
- Potency Assay EC50 (nM), transient hRXFP1 cAMP assay: 5.8 nM

B13: SEQ ID NO: 213 (Fc fusion)
chain: B12 chain with Q293E
- Potency Assay EC50 (nM), transient hRXFP1 cAMP assay: 1.8 nM

B15: SEQ ID NO: 68 (Fc fusion)
chain: B14 chain with M233Q, E259G, G260E, E263G, G270R
- Potency Assay EC50 (nM), transient hRXFP1 cAMP assay: 3.3 nM

B16: SEQ ID NO: 70 (Fc fusion)
chain: B14 chain with M233Q, E259G, G260E, E263G, G270R, R292Q
- Potency Assay EC50 (nM), transient hRXFP1 cAMP assay: 8 nM

B17: SEQ ID NO: 211 (Fc fusion)
chain: B14 chain with M233Q
- Potency Assay EC50 (nM), transient hRXFP1 cAMP assay: 101 nM

B18: Relaxin-2 (R&D Biosystems 6586-RN-025) (ligand)
chain 1: DSWMEEVIKLCGRELVRAQIAICGMSTWS
chain 2: QLYSALANKCCHVGCTKRSLARFC
- EC50 in nM (cAMP Response in RXFP1 Transfected HEK293 Cells): 0.042 nM
- Potency Assay EC50 (nM), transient hRXFP1 cAMP assay: 0.1 nM
- pEC50 (cAMP Response in RXFP1 Transfected HEK293 Cells): 10.4
